Patent US20150283263A1

Target: CD25 (human) (UniProt P01589)
Assay: flow cytometry on Karpas299 cells (surface CD25); negative control antibody

CD25 (human), sequence (P01589 22-272): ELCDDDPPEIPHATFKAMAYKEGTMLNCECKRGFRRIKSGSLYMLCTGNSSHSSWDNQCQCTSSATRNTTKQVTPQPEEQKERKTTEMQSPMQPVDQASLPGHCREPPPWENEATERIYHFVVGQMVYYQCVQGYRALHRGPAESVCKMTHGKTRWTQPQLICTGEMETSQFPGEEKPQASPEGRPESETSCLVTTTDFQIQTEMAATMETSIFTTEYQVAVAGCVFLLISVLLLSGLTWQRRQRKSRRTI

B12 anti-HIV gp120 antibody
EC50: 537 µg/mL
